In paper PMC4732765, “Long-Term Persistence of Bi-functionality Contributes to the Robustness of Microbial Life through Exaptation” (PLoS Genetics, 2016) one finds Km, kcat and kcat/Km data, which are given here for four proteins.

Common to all, as to experiment: purified protein
Substrate in data set [1]: NC(=O)c1ncn([C@@H]2O[C@H](COP(=O)(O)O)[C@@H](O)[C@H]2O)c1N=CN[C@@H]1O[C@H](COP(=O)(O)O)[C@@H](O)[C@H]1O
It is filed as biochemical, Syntrophotalea carbinolica. The conditions noted are these: 25 °C, HisA reaction.

Substrate in data set [2]: O=C(O)c1ccccc1N[C@@H]1O[C@H](COP(=O)(O)O)[C@@H](O)[C@H]1O
It is filed as biochemical, Syntrophotalea carbinolica. The conditions noted are these: 25 °C, TrpF reaction, PRA generated in situ from anthranilate and excess PRPP with yeast anthranilate phosphoribosyl transferase.

Substrate in data set [3]: NC(=O)c1ncn([C@@H]2O[C@H](COP(=O)(O)O)[C@@H](O)[C@H]2O)c1N=CN[C@@H]1O[C@H](COP(=O)(O)O)[C@@H](O)[C@H]1O
It is filed as biochemical, synthetic construct. The conditions noted are these: 25 °C, HisA reaction, enzyme shows hysteresis.

Substrate in data set [4]: O=C(O)c1ccccc1N[C@@H]1O[C@H](COP(=O)(O)O)[C@@H](O)[C@H]1O
In kind it is biochemical, synthetic construct. The conditions noted are these: 25 °C, TrpF reaction, PRA generated in situ from anthranilate and excess PRPP with yeast anthranilate phosphoribosyl transferase, enzyme shows hysteresis.

Substrate in data set [5]: NC(=O)c1ncn([C@@H]2O[C@H](COP(=O)(O)O)[C@@H](O)[C@H]2O)c1N=CN[C@@H]1O[C@H](COP(=O)(O)O)[C@@H](O)[C@H]1O
It is filed as biochemical, Thermotoga maritima. The conditions noted are these: 25 °C, HisA reaction.

Substrate in data set [6]: O=C(O)c1ccccc1N[C@@H]1O[C@H](COP(=O)(O)O)[C@@H](O)[C@H]1O
It is filed as biochemical, Thermotoga maritima. The conditions noted are these: 25 °C, TrpF reaction, PRA generated in situ from anthranilate and excess PRPP with yeast anthranilate phosphoribosyl transferase.

Substrate in data set [7]: NC(=O)c1ncn([C@@H]2O[C@H](COP(=O)(O)O)[C@@H](O)[C@H]2O)c1N=CN[C@@H]1O[C@H](COP(=O)(O)O)[C@@H](O)[C@H]1O
It is filed as biochemical, Desulfovibrio desulfuricans. The conditions noted are these: 25 °C, HisA reaction.

Substrate in data set [8]: O=C(O)c1ccccc1N[C@@H]1O[C@H](COP(=O)(O)O)[C@@H](O)[C@H]1O
It is filed as biochemical, Desulfovibrio desulfuricans. The conditions noted are these: 25 °C, TrpF reaction, PRA generated in situ from anthranilate and excess PRPP with yeast anthranilate phosphoribosyl transferase.

B1: pcHisA (Syntrophotalea carbinolica DSM 2380) (protein)
chain: MIVIPAIDLKEGRCVRLEQGLMEKDTVYNDNPGAQARSWQEQGGELLHIVDLDGAFAGVPRNRDAIRAIAEAVSIPTELGGGIRDLPTIEAYLELGIDRVILGTVAKENPELVREACRLFPGRIVVGIDARDGLVAVRGWADVTEKLATELAKEMEGFGVEAIIYTDIARDGMMGGPNLEATRALAESISVPVIASGGVSCLEDIARLMTIEDSGVTGVITGKALYTGSLDLREAVALTKGKA
notes: full-length hisA in pET24a (NdeI/XhoI), His-tag (HisTrap), E. coli T7 Express with pRARE
On to B1, for which, in the data set “purified protein [1]”, the Km (as a rule, the concentration of substrate that gives half-maximal velocity) worked out at 1.8 µM; the catalytic constant (kcat) (usually the number of substrate molecules converted per active site and unit of time at saturation) stood at 0.4 s⁻¹; the kcat/Km (as a rule, the turnover number divided by the Michaelis constant) turned out to be 220000 M⁻¹ s⁻¹. In “purified protein [2]”, the Km is 303 µM, the kcat turned out to be 0.001 s⁻¹ and the kcat/Km was 3 M⁻¹ s⁻¹.

B2: CA-Bact-HisA (synthetic construct) (protein)
chain: MRIIPAIDLKDGRCVRLVQGDMEKATVYNDDPLEMAKQWVEQGAEWLHVVDLDGAFAGKPVNEDVIKEIAQKVSVKVQLGGGIRDLEDIEAYLDAGVDRVIIGTVAVKNPELVREMVEKYGERIVVGIDARDGMVAVKGWKETTEVKATDLAKRFEDAGVEAIIYTDIARDGMMQGPNIEAIRELAKAVSLPVIASGGVSSLEDIEALLAIEESGVAGVIVGKALYEGRLDLREALALAKKL
notes: synthetic gene in pET24a, His-tag (HisTrap), E. coli BL21-Gold (DE3)
Turning to B2, in the data set “purified protein [3]”, the Km amounted to 0.5 µM, the kcat came to 0.05 s⁻¹ and the kcat/Km is 100000 M⁻¹ s⁻¹. For the same protein, in “purified protein [4]”, the Michaelis-Menten constant (Km) came out at 3.2 µM, the kcat amounted to 0.00023 s⁻¹ and the kcat/Km came to 70 M⁻¹ s⁻¹.

B3: tmHisA (Thermotoga maritima MSB8) (protein)
chain: MLVVPAIDLFRGKVARMIKGRKENTIFYEKDPVELVEKLIEEGFTLIHVVDLSNAIENSGENLPVLEKLSEFAEHIQIGGGIRSLDYAEKLRKLGYRRQIVSSKVLEDPSFLKSLREIDVEPVFSLDTRGGRVAFKGWLAEEEIDPVSLLKRLKEYGLEEIVHTEIEKDGTLQEHDFSLTKKIAIEAEVKVLAAGGISSENSLKTAQKVHTETNGLLKGVIVGRAFLEGILTVEVMKRYAR
notes: full-length hisA in pET21a (NdeI/NotI), His-tag (HisTrap), E. coli BL21-CodonPlus-(DE3)-RIPL; heat step 70 °C
With B3, in “purified protein [5]”, the Michaelis-Menten constant (Km) amounted to 5.6 µM, the kcat turned out to be 1 s⁻¹ and the kcat/Km was 180000 M⁻¹ s⁻¹. The Km in the data set “purified protein [6]” stood at 60 µM.

B4: ddHisA (Desulfovibrio desulfuricans ATCC 27774) (protein)
chain: MIIFPAVDIQNGKAVRLKQGRAHESTVFAESPVDAARAWEEAGARWLHVVDLDGAFDGAAQSRRIVRDICAALAIPVQLGGGIRDMHTAEAYLEAGVSRLIIGTLALEQPTLFADMCRAFPGRVGVSLDAEGGRLKSRGWVEDTGMTVDTALPRLLDDGAAFVIYTDIERDGMQCGVNVAALEHLARLSTVPVIAAGGVATLEDIQKLYPLTLETSLMGAVSGRALYEGTLDLKEANAWIDARKNTPESA
notes: as for B1
In the case of B4, in the data set “purified protein [7]”, the Km is 2.8 µM, the kcat stood at 1.3 s⁻¹ and the kcat/Km worked out at 460000 M⁻¹ s⁻¹. Besides, in “purified protein [8]”, the Km amounted to 161 µM, the kcat worked out at 0.0023 s⁻¹ and the kcat/Km came out at 14 M⁻¹ s⁻¹.
